# Test system: purified recombinant full-length Src from Upstate Biotechnology
substance,measurement,value
purified pig kidney Na+/K+-ATPase (PKE),Src-mediated tyrosine phosphorylation (commercial kinase assay kit),"the Na+/K+-ATPase kept Src in an inactive state, addition of ouabain restored the kinase activity"

# Source: US20130150294
